Article PMC5858766, “Identification of aaNAT5b as a spermine N-acetyltransferase in the mosquito, Aedes aegypti” (PLoS ONE, 2018)

Columns and labels:
Experiment in all cases: purified protein
Assay type in all cases: biochemical, Aedes aegypti
Settings in all cases: 0.4 mM acetyl-CoA, 50 mM Tris-HCl, 1 mg/mL BSA, room temperature, 5 min; apparent Km
purified protein [1] = substrate: NCCc1c[nH]cn1
purified protein [2] = substrate: NCCCCN
purified protein [3] = substrate: NCCCCNCCCN
purified protein [4] = substrate: N=C(N)NCCCCN
purified protein [5] = substrate: NCCCNCCCCNCCCN
purified protein [6] = substrate: NN

B1: aaNAT5b/SAT (Aedes aegypti) (protein)
chain: MVAPESIVLRVARLDELEQVREILHRIYYPEEGITISYVHGKSHTLDDERFSLSFVEQGTVVVAEDSAAKKFIGVSIAGPIQPGDPDAMVEEAATTETKKWGDILKLLALLERTADVCGRYGLEKAYHVHILAVDPTYRGHSLGQRLLQFQMDLSKKLGFKAISGDFTSVFSVKLAEKLGMECISQLALGDYRDEKGEKLFEPLDVHQVIKTCVKLL
notes: about 25 kDa; monomer
Km (purified protein [1]): 700 ± 130 µM | kcat (purified protein [1]): 0.277 ± 0.0217 s⁻¹ | kcat/Km (purified protein [1]): 400 M⁻¹ s⁻¹ | Km (purified protein [2]): 520 ± 110 µM | kcat (purified protein [2]): 0.503 ± 0.0267 s⁻¹ | kcat/Km (purified protein [2]): 967 M⁻¹ s⁻¹ | Km (purified protein [3]): 690 ± 120 µM | kcat (purified protein [3]): 0.26 ± 0.0233 s⁻¹ | kcat/Km (purified protein [3]): 383 M⁻¹ s⁻¹ | Km (purified protein [4]): 210 ± 50 µM | kcat (purified protein [4]): 2.5 ± 0.183 s⁻¹ | kcat/Km (purified protein [4]): 11900 M⁻¹ s⁻¹ | Km (purified protein [5]): 170 ± 40 µM | kcat (purified protein [5]): 3.32 ± 0.2 s⁻¹ | kcat/Km (purified protein [5]): 19500 M⁻¹ s⁻¹ | Km (purified protein [6]): 260 ± 30 µM | kcat (purified protein [6]): 0.637 ± 0.0283 s⁻¹ | kcat/Km (purified protein [6]): 2450 M⁻¹ s⁻¹
